Results published in US20210085786A1.

Biological target: receptor tyrosine kinase-like orphan receptor 1 (ROR1) (human) (UniProt Q01973)
Assay: flow cytometry (FSC against control stain) of PDX tumour cells stained with the control antibody, same ROR1+ gate

Sequence of UniProt Q01973 (Q01973 30-937): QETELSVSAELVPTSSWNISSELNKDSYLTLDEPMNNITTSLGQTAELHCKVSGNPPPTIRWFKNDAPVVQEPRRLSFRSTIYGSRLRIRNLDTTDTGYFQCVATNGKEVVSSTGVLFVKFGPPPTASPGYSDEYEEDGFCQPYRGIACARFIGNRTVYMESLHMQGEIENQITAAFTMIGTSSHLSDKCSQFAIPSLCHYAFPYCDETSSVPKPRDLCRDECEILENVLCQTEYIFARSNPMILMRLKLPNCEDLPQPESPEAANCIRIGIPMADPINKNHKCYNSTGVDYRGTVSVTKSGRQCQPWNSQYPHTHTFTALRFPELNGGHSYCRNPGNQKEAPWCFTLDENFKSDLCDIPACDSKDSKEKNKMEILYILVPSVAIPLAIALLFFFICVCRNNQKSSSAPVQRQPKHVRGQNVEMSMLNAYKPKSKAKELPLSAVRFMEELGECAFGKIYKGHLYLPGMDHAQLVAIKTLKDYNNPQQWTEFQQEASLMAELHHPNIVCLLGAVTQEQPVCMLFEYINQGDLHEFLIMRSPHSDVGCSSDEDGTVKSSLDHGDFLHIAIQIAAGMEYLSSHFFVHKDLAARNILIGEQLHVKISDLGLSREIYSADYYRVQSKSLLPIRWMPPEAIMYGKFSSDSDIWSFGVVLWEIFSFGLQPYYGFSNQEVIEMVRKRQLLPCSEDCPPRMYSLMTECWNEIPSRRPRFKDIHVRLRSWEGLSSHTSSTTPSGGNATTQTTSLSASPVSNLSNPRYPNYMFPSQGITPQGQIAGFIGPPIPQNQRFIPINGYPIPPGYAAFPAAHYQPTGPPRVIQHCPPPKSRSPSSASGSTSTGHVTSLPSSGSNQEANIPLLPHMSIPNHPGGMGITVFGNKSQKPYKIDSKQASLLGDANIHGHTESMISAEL

Control (antibody)
% of cells in the ROR1+ gate: 0.7%
